Assay results published in the supplement of paper PMC10126150.
± gives the standard deviation of the averaged measurements.

Test system: ATP
Assay: switch fluorescence ratio, 500 uM ATP over buffer (Cy3 cluster intensity, sum of 5 cycles each) (fold (ratio)); higher = stronger signal-on switching upon ATP binding; sequences stand for … in TCGTCGGCAGCGTCAGATGTGTATAAGAGACAGTTTTTTTTTTTTTTTTTTTTTTTTT…TC
Conditions: aptamer strand: ATP DNA aptamer (quencher-CACCTGGGGGAGTATTGCGGAGGAAGG + anchor), 100 nM annealed; ATP concentration: 500 uM
Method in brief: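 Clusters with intensities outside 100-1000 RFU were excluded. The remaining Cy3-labelled switching-strand clusters on a modified Illumina MiSeq flow-cell had been annealed to 100 nM quencher-labelled ATP aptamer and imaged in selection buffer, then after 15 min with 500 uM ATP at 22 °C, for five cycles separated by NaOH stripping and re-annealing. The fluorescence ratio, averaged per switch-domain sequence, is each cluster's summed target-cycle Cy3 intensity over its summed buffer-cycle Cy3 intensity.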
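Also: ATP exposure 15 min at 22 °C before imaging.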

CAGGTAAATT
switch fluorescence ratio: 0.975 ± 0.03

TACCGTGGGC
switch fluorescence ratio: 1.04 ± 0.036

CTTAAGGGAA
switch fluorescence ratio: 0.9915 ± 0.0065

TCTCGGATGT
switch fluorescence ratio: 0.99 ± 0.039

AATTAAGAGG
switch fluorescence ratio: 1 ± 0.011

GGTGCGGTTG
switch fluorescence ratio: 0.9975 ± 0.00035

GGGGGAGCGG
switch fluorescence ratio: 0.992 ± 0.033

GAAGGGACGA
switch fluorescence ratio: 0.993 ± 0.04

GGGTGCGGCA
switch fluorescence ratio: 0.998 ± 0.019

CAGTCACTTG
switch fluorescence ratio: 1.01 ± 0.029

AGAAGATGTG
switch fluorescence ratio: 0.973 ± 0.059

CGAAGGGCG
switch fluorescence ratio: 1.03 ± 0.029

CAGCTAAAGT
switch fluorescence ratio: 1.009 ± 0.0017

TATTTGCTGT
switch fluorescence ratio: 1.001 ± 0.001

TTCAGATAGA
switch fluorescence ratio: 0.9875 ± 0.0037

AGGGTAGTTT
switch fluorescence ratio: 0.985 ± 0.045

ATCGAAAGTT
switch fluorescence ratio: 0.99 ± 0.013

AGGGAATTAC
switch fluorescence ratio: 1.022 ± 0.0036

GGGGGCTGCG
switch fluorescence ratio: 1.04 ± 0.051

ACGTACGGGT
switch fluorescence ratio: 1.46 ± 0.12

TTAACGTAAG
switch fluorescence ratio: 1 ± 0.037

GGGAACGAGG
switch fluorescence ratio: 1.02 ± 0.019

GAGTGGGGAT
switch fluorescence ratio: 1.02 ± 0.021

TCGGTAGGGA
switch fluorescence ratio: 0.96 ± 0.021

GATTAGGGTG
switch fluorescence ratio: 1.01 ± 0.026

GAGCTACGGG
switch fluorescence ratio: 1.01 ± 0.033

AAGGGGGTAT
switch fluorescence ratio: 0.999 ± 0.043

AGTTTGGCAG
switch fluorescence ratio: 0.998 ± 0.035

GGATTTTTTA
switch fluorescence ratio: 1.006 ± 1.6e-05

GTGTTTGTGG
switch fluorescence ratio: 0.966 ± 0.033

GGGGGGTTCG
switch fluorescence ratio: 0.978 ± 0.021

GGTTTGGGTA
switch fluorescence ratio: 1.01 ± 0.0044

CTGGGAGTAC
switch fluorescence ratio: 1.04 ± 0.051

TCATCTATAT
switch fluorescence ratio: 1.03 ± 0.028

GTGGGTCATA
switch fluorescence ratio: 0.953 ± 0.099

ACTAGTCGGA
switch fluorescence ratio: 1.03 ± 0.028

ATCGGCACAT
switch fluorescence ratio: 1.1 ± 0.012

TATATAGGAA
switch fluorescence ratio: 1.018 ± 0.0064

GTATTTGGGC
switch fluorescence ratio: 0.994 ± 0.012

TTATTGGAGA
switch fluorescence ratio: 0.996 ± 0.015

ACGGGGCTGG
switch fluorescence ratio: 1.02 ± 0.048

TTAACGGGGG
switch fluorescence ratio: 0.984 ± 0.043

AAGATTGTGT
switch fluorescence ratio: 0.9849 ± 0.0017

TTTCCGTTTT
switch fluorescence ratio: 1.01 ± 0.038

ATCCTTTTGG
switch fluorescence ratio: 1.03 ± 0.094

ATTGCTTTGG
switch fluorescence ratio: 0.9976 ± 0.0015

AGGACAGTCG
switch fluorescence ratio: 0.929 ± 0.045

TTTAAGCGGT
switch fluorescence ratio: 0.996 ± 0.024

TCCCGAATTT
switch fluorescence ratio: 1.02 ± 0.016

GGAGTCGTCC
switch fluorescence ratio: 1.01 ± 0.024

GTGGTAAGCT
switch fluorescence ratio: 1.02 ± 0.049

TTATTGCTTA
switch fluorescence ratio: 0.97037 ± 0.00059

TCGTTCGTCT
switch fluorescence ratio: 0.973 ± 0.039

CTTTGTTTGA
switch fluorescence ratio: 0.976 ± 0.0076

TATTAGGTGT
switch fluorescence ratio: 1.04 ± 0.04

GGGGAGTGCG
switch fluorescence ratio: 0.969 ± 0.01

CGTAAAAATG
switch fluorescence ratio: 1.01 ± 0.024

GCAATTGGTC
switch fluorescence ratio: 1.25 ± 0.06

CAATGCCGAG
switch fluorescence ratio: 0.9895 ± 0.0045

GAAAAAAAAT
switch fluorescence ratio: 1 ± 0.067

CTGCTGAGCA
switch fluorescence ratio: 1.03 ± 0.029

AGGTTTGGGG
switch fluorescence ratio: 1.04 ± 0.033

GTCATTTTGG
switch fluorescence ratio: 1.03 ± 0.036

ATTGTAGGAC
switch fluorescence ratio: 1.01 ± 0.036

GGGACAGGGG
switch fluorescence ratio: 1.21 ± 0.35

TTGGAAAAGG
switch fluorescence ratio: 1.02 ± 0.029

AAGACTTAT
switch fluorescence ratio: 1.01 ± 0.053

TAAGAGGCCT
switch fluorescence ratio: 1.02 ± 0.031

AGCATCACTT
switch fluorescence ratio: 1.04 ± 0.029

TAAGCTTGTA
switch fluorescence ratio: 1.01 ± 0.022

TTGGTAGTCT
switch fluorescence ratio: 1.04 ± 0.012

GTTATAAGGA
switch fluorescence ratio: 0.988 ± 0.019

GGGGTGAAGT
switch fluorescence ratio: 1.04 ± 0.017

GGTCTAGCCT
switch fluorescence ratio: 0.9858 ± 0.0066

ATGCCAGCGC
switch fluorescence ratio: 1.02 ± 0.025

TAAGTGCGGG
switch fluorescence ratio: 0.974 ± 0.0034

ATAGTTTGGA
switch fluorescence ratio: 0.947 ± 0.017

ATTCGCTTTT
switch fluorescence ratio: 1 ± 0.042

ACTTGCTTAC
switch fluorescence ratio: 2 ± 0.022

ATGATTTGGC
switch fluorescence ratio: 1.04 ± 0.048

TTAGGGGGGG
switch fluorescence ratio: 1 ± 0.052

AAACTTGTGA
switch fluorescence ratio: 1.02 ± 0.024

AATAATATTA
switch fluorescence ratio: 0.975 ± 0.019

AAAGACAGTT
switch fluorescence ratio: 1.01 ± 0.049

TTTTACCATT
switch fluorescence ratio: 1.09 ± 0.061

CATGTTGGAT
switch fluorescence ratio: 0.964 ± 0.029

GGAACAGCGG
switch fluorescence ratio: 1.001 ± 0.0016

ATTCTGACAC
switch fluorescence ratio: 1.07 ± 0.028

TTGGGGGTCA
switch fluorescence ratio: 1.01 ± 0.023

GGATTTTTAG
switch fluorescence ratio: 0.99134 ± 0.00052

CGATGTTCAC
switch fluorescence ratio: 1.05 ± 0.011

CGCGGGAGTA
switch fluorescence ratio: 1.02 ± 0.018

GCCATATTGG
switch fluorescence ratio: 0.9715 ± 0.0077

CCGTTGTATT
switch fluorescence ratio: 1.12 ± 0.035

TATCACCGGC
switch fluorescence ratio: 1.09 ± 0.031

TGACCACCAG
switch fluorescence ratio: 0.993 ± 0.019

TTCGCACCGG
switch fluorescence ratio: 1.021 ± 0.0073

GGAGTGTGGG
switch fluorescence ratio: 0.986 ± 0.019

TTATGATACG
switch fluorescence ratio: 1.01 ± 0.017

AACGACACAT
switch fluorescence ratio: 1.46 ± 0.014

CAGTAATGCG
switch fluorescence ratio: 0.99757 ± 0.00094

CGGTTCAGTT
switch fluorescence ratio: 1.036 ± 0.0022

CGAATGCGTT
switch fluorescence ratio: 0.973 ± 0.021

GGGGATTTGC
switch fluorescence ratio: 0.969 ± 0.023

CTACGGCATA
switch fluorescence ratio: 3.11 ± 0.11

TACTCGGCTC
switch fluorescence ratio: 1.66 ± 0.11

CTATCGGGAG
switch fluorescence ratio: 0.9831 ± 0.0025

TGACATAATT
switch fluorescence ratio: 1.01 ± 0.046

ATAGTAACCG
switch fluorescence ratio: 0.997 ± 0.083

AATGCTCGTA
switch fluorescence ratio: 1.01 ± 0.023

CAATTTTTCA
switch fluorescence ratio: 1 ± 0.069

CGGGGTGCGT
switch fluorescence ratio: 1.02 ± 0.037

GGTCAGTGGT
switch fluorescence ratio: 1 ± 0.022

CCCTTTTTAT
switch fluorescence ratio: 0.986 ± 0.014

TTTTGGAGC
switch fluorescence ratio: 1.05 ± 0.068

GAAGAATTAT
switch fluorescence ratio: 1.011 ± 0.0007

CGATTTAATA
switch fluorescence ratio: 1.01 ± 0.051

TGTTGCCCCT
switch fluorescence ratio: 1.02 ± 0.051

CGTGTATTCG
switch fluorescence ratio: 1.01 ± 0.031

TTGGGAGCTG
switch fluorescence ratio: 1.021 ± 0.0068

TTTCTTTATT
switch fluorescence ratio: 1.05 ± 0.063

GGGTATAAGG
switch fluorescence ratio: 0.989 ± 0.026

TACTTGTGTA
switch fluorescence ratio: 1.02 ± 0.014

TAATGGGTGC
switch fluorescence ratio: 1.06 ± 0.038

CGGGAAGGTT
switch fluorescence ratio: 1.08 ± 0.16

GGGTTCGTTC
switch fluorescence ratio: 0.989 ± 0.054

AGGTCCCAGC
switch fluorescence ratio: 1 ± 0.02

CTCGATGCGT
switch fluorescence ratio: 1.04 ± 0.013

GATTTTGCCG
switch fluorescence ratio: 1.11 ± 0.1

GGGTGCATCG
switch fluorescence ratio: 1.004 ± 0.0046

TAAGGAGGTC
switch fluorescence ratio: 0.99 ± 0.031

CCGGGAGCGC
switch fluorescence ratio: 1.98 ± 0.83

GTATCTGGGG
switch fluorescence ratio: 0.998 ± 0.059

GTGGCGTAGA
switch fluorescence ratio: 1.02 ± 0.012

TTGAAACTTG
switch fluorescence ratio: 0.952 ± 0.018

AGTAGTAAGA
switch fluorescence ratio: 1.01 ± 0.022

ATTTAGTATC
switch fluorescence ratio: 1.09 ± 0.14

AATTTGATC
switch fluorescence ratio: 1.03 ± 0.021

GACGATTGTT
switch fluorescence ratio: 0.988 ± 0.021

AAAATGATAT
switch fluorescence ratio: 0.99 ± 0.02

ATGCACACTC
switch fluorescence ratio: 1.225 ± 0.0043

TAACATTTAT
switch fluorescence ratio: 0.979 ± 0.027

ATAGCAAAAT
switch fluorescence ratio: 1.07 ± 0.13

TGTATCGGGT
switch fluorescence ratio: 0.979 ± 0.035

AGCGTGTAGG
switch fluorescence ratio: 1 ± 0.15

AAACGCATCT
switch fluorescence ratio: 1.1304 ± 0.0008

TGTAGTAAGT
switch fluorescence ratio: 1.01 ± 0.06

GGGTTATGGG
switch fluorescence ratio: 1.005 ± 0.008

TTGTCGGGTT
switch fluorescence ratio: 1.01 ± 0.018

CAATCTGATA
switch fluorescence ratio: 0.99 ± 0.016

AGGTTTTTTT
switch fluorescence ratio: 0.993 ± 0.017

TGATTGTTAG
switch fluorescence ratio: 0.988 ± 0.023

TCAGCTGGGA
switch fluorescence ratio: 1 ± 0.026

TATTGGGCTA
switch fluorescence ratio: 0.993 ± 0.044

TTTTTTTCTA
switch fluorescence ratio: 0.99 ± 0.014

TATGGAAGAG
switch fluorescence ratio: 0.977 ± 0.054

TGGTCCACTG
switch fluorescence ratio: 1.009 ± 0.0057

AAAATGTCGA
switch fluorescence ratio: 1 ± 0.024

ACGGGGACTG
switch fluorescence ratio: 1.0927 ± 0.00086

GAGCTTGGCA
switch fluorescence ratio: 0.9859 ± 0.0058

GGGGAGAGCG
switch fluorescence ratio: 1.01 ± 0.034

GTTATTAGAG
switch fluorescence ratio: 0.987 ± 0.026

GAAAGTTCAG
switch fluorescence ratio: 1.002 ± 0.0098

AGTTAGTGT
switch fluorescence ratio: 0.978 ± 0.051

GGTACTTCTA
switch fluorescence ratio: 1.01 ± 0.018

TGTCAGAAGC
switch fluorescence ratio: 0.994 ± 0.012

CGTCCCCGAG
switch fluorescence ratio: 1.054 ± 0.0087

GGGCATTGGG
switch fluorescence ratio: 0.996 ± 0.043

GTCTTTTGTG
switch fluorescence ratio: 1.31 ± 0.43

ACGGGAGAGG
switch fluorescence ratio: 1.02 ± 0.035

GCGCTAATGT
switch fluorescence ratio: 1.08 ± 0.013

AAAGTCGGGC
switch fluorescence ratio: 0.946 ± 0.059

GGGGCTATCT
switch fluorescence ratio: 1.33 ± 0.42

TCTTTAAAGG
switch fluorescence ratio: 1.04 ± 0.039

TTTTCGTAAT
switch fluorescence ratio: 2.26 ± 1.9

CGGCGTTCGC
switch fluorescence ratio: 0.964 ± 0.049

TACTCAGTAT
switch fluorescence ratio: 1.0208 ± 0.00084

TTAGCTTTGA
switch fluorescence ratio: 0.992 ± 0.022

CGGGGGGGGA
switch fluorescence ratio: 1.02 ± 0.035

TTTGGCTGTA
switch fluorescence ratio: 0.97 ± 0.012

TCGTCGCGTA
switch fluorescence ratio: 0.978 ± 0.14

CGGTTACCAG
switch fluorescence ratio: 1.03 ± 0.013

GGGAATGCTT
switch fluorescence ratio: 1.016 ± 0.0054

CTATGGTTTT
switch fluorescence ratio: 1.014 ± 0.003

CGTACGGCAG
switch fluorescence ratio: 0.9978 ± 0.0052

TTGTCCCGTG
switch fluorescence ratio: 1.01 ± 0.026

CTGGCGGTCC
switch fluorescence ratio: 1.028 ± 0.0066

GCAGCAGGGG
switch fluorescence ratio: 1.84 ± 0.23

AGTAGTATTT
switch fluorescence ratio: 1.017 ± 0.0014

ACTCGATTTT
switch fluorescence ratio: 1.02 ± 0.033

GTCTAAGTGC
switch fluorescence ratio: 0.996 ± 0.011

AAGGTTTTGG
switch fluorescence ratio: 1.15 ± 0.24

AAGAGGACGC
switch fluorescence ratio: 1 ± 0.066

GTGATGGATG
switch fluorescence ratio: 0.997 ± 0.057

GCTAGGGGA
switch fluorescence ratio: 1.02 ± 0.011

GGTAGAAACT
switch fluorescence ratio: 1.04 ± 0.014

ACAAAGGAGC
switch fluorescence ratio: 1 ± 0.022

AAGGGTTCAC
switch fluorescence ratio: 0.9963 ± 0.0031

ACGGGCCCGA
switch fluorescence ratio: 1.02 ± 0.029

GTTTTTTTGA
switch fluorescence ratio: 1.0032 ± 0.00018
